For orientation: stoichiometry N means a count of units in the complex or per binding partner.

For one substance, stoichiometry N results are on record in PMC3984155.

Test [1] addresses Litopenaeus vannamei Proliferating Cell Nuclear Antigen (Litopenaeus vannamei). Briefly: SEC; purified LvPCNA at 1 mg/ml on a Superdex 200 column, elution compared with known molecular-mass standards. Background: In gel filtration, larger molecules generally elute earlier.
Test [2] has the same target. Put plainly: crystal structure; X-ray, 3 Å, space group C2; crystals from 300 mM CaCl2, 100 mM sodium HEPES pH 7.5, 30% v/v PEG 400; molecular replacement.

“Litopenaeus vannamei Proliferating Cell Nuclear Antigen (natural protein)”: the stoichiometry N in test [1] and in test [2] was 3 throughout.
